Publication PMC7729563, “Phospho-Mutant Activity Assays Provide Evidence for the Negative Regulation of Transcriptional Regulator PRE1 by Phosphorylation” (International Journal of Molecular Sciences, 2020)

B1: AD-PRE1 (PACLOBUTRAZOL-RESISTANT-1 fused to GAL4AD) [Arabidopsis thaliana] / BD-IBH1 (ILI1 BINDING bHLH PROTEIN1 fused to GAL4BD) [Arabidopsis thaliana] (parent complex)
chain 1: MSNRRSRQSSSAPRISDNQMIDLVSKLRQILPEIGQRRRSDKASASKVLQETCNYIRNLNREVDNLSERLSQLLESVDEDSPEAAVIRSLLM
chain 2: MASADKLINTDVPEKDVFAFHFLQSLSNLRKQNPFDTPDQKNYRVRKIKKAAYVSMARAAGGSSRLWSRALLRRADKDDNKIVRFSRRKWKISSKRRRSNQRAPVVEEAAERLRNLVPGGGGMETSKLMEETAHYIKCLSMQVKVMQCLVDGLSPK

Variants of: B1
Assay: pull-down, band quantification normalized to input; parent: 0.32; read off a plot

Point of comparison: chain 1 S67A, response ~0.23 Pull-down/Input. Against it:
- chain 1 S67E — lower, ~0.13 Pull-down/Input

Variants of: B1
Assay: yeast two-hybrid, quantitative β-galactosidase assay; parent: 3.9; read off a plot

Point of comparison: chain 1 S67E, response ~2.3 β-gal units. Against it:
- chain 1 S67A — higher, ~3.6 β-gal units

Variants of: B1
Assay: Ratiometric-Bimolecular Fluorescence Complementation (rBiFC) in tobacco; n = 50 images; parent: 0.42; read off a plot

In the case of chain 1 S67E, the response is reported as ~0.16 YFP/RFP.
